The results in this text go back to PMC3617236.

Assay [1] addresses recombinant His-tagged Wolbachia surface protein wBm0152 (Wolbachia endosymbiont of B. malayi (wBm)). Kind of assay: ELISA. In general terms: An ELISA detects its analyte on a solid surface through an enzyme-linked reagent.
In assay [2] the target is recombinant His-tagged B. malayi fructose-bisphosphate aldolase (B. malayi). Description: far-Western, overlay or dot blot; His-Bm-aldolase (3 µg per lane) run on SDS-PAGE and blotted on nitrocellulose; strips incubated with 1, 2, 5 or 10 µg/ml His-wBm0432 in overlay buffer, 3 h, room temperature; signals quantified with GeneSnap.

What is called Kd is the free concentration of one partner at which half of the binding sites on the other are occupied at equilibrium, for simple one-to-one binding. “purified bovine actin (from UniProt P68138 1-377) (natural protein)”: in assay [1], the Kd worked out at 570 nM. With “recombinant His-tagged Wolbachia surface protein wBm0432 (natural protein)”, the Kd in assay [2] was 510 nM.
